Assay [1] concerns the target Bordetella pertussis toxin (PT) holotoxin (Bordetella pertussis) (UniProt P04977). Briefly: FACS. To be noted: natural protein.
Assay [2] has the same target. Briefly: FACS. To be noted: natural protein. The source holds these as a separate data set.

pIC50: −log10 of the molar value.

Sequence of α1-antitrypsin (Prolastin, plasma-derived) (P01009 25-418): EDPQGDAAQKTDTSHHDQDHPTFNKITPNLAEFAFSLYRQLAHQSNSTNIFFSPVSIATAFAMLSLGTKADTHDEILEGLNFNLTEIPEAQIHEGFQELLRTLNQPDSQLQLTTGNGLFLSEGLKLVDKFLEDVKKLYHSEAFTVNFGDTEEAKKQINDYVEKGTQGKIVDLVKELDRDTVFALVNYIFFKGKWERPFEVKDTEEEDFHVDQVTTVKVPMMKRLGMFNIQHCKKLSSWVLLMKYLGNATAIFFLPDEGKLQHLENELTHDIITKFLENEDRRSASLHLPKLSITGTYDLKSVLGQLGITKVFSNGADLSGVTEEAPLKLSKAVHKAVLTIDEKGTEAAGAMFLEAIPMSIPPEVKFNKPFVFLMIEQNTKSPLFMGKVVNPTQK

Consider “α1-antitrypsin (Prolastin, plasma-derived) (from UniProt P01009 25-418)”, for which the pIC50 in assay [1] was 5.76; in assay [2] it was 6.10.

In general, pIC50 refers to the IC50 on a negative log10 scale, so that one unit is a factor of ten.

The record behind these values is paper PMC11683240.
